No end group written: not given here.
Biological target: the molecule itself
Experiment: non-reducing SDS/PAGE; overnight dialysis at 4°C against non-reducing (DTT-free) HK buffer, non-reducing sample buffer, 65°C 5 min, Coomassie stain; disulphide-linked dimer

Row | Protein | stoichiometry N
1 | GEETDLCSSPGRKKFPLKIFKKPLKK (domain or fragment, human, UniProt Q13586-1 662-685, looked up, not fully specified; inserted cysteine oxidized (84% dimerization), STIM1, human, residues 662–685 with Leu and Cys inserted after Asp666; The methods describe only the plasmid of the +LC–P675A–P682A form (pMS781); also called GFP–STIM1K dimer; oxidized GFP–STIM1K+LC; source: E. coli BL21 (DE3), purified, dialysed overnight against DTT-free HK buffer; not shown: GFP, N-terminal, kept) [GFP–STIM1K+LC (GFP–STIM1K with a leucine and cysteine insertion after residue 666), oxidized dimer] | 2
2 | {GFP}-GEETDLCSSPGRKKFALKIFKKALKK (domain or fragment, human, UniProt Q13586-1 662-685, looked up, also: disulfide-linked dimer via inserted cysteine, STIM1, human, residues 662–685 with Leu and Cys inserted after Asp666, P675A and P682A; also called pMS781; GFP-STIM1K dimer with both prolines mutated; source: E. coli BL21 (DE3), purified, dialysed overnight against DTT-free HK buffer; not shown: GFP, N-terminal, kept) [GFP–STIM1K+LC–P675A–P682A, oxidized dimer] | 2

Reference: publication PMC3814058 (Bioscience Reports, 2013)
